Assay [1] deals with mice. Kind of assay: Eight-arm maze, mice ad libitum or diet restricted. It is filed as in vivo. The following applies: 1 mg/kg leptin daily for 5 days. The protocol: Control mice received food ad-libitum. Diet-restricted mice received a diet of 57 kCal/week/mouse (2.16 g/day/mouse) as 60% of the requirement, or 38 kCal/week/mouse (1.44 g/day/mouse) for 40%/DR. DR was carried out for 10 days. Behavioral test was performed using the eight-arm spatial maze during the second week of experiment. […] Mice were sacrificed by decapitation after the behavioral tests and the hippocampi were frozen at −70° C. The animals were placed in an eight-arm maze, which is a scaled-down version of that developed for rats (Randt et al, (1971) Science 172, 489-499; Ziv et al (1994) Neuroscience Lett, 170, 136-140). […] The mice were tested until they made entries into all eight arms or until they completed 24 entries, whichever came first. […] Maze performance was calculated each day for five consecutive days. Results were presented as area under the curve (AUC) utilizing the formula: (day 2+day 3+day 4+day 5)−4*(day 1).

Assay [2] deals with Bcl-2, Bax, PARP. Briefly: Hippocampal apoptosis proteins by RT-PCR and immunoblotting. It is filed as in vivo, mice. To be noted: leptin 1 mg/kg, DR to 40%, immunoblotting. On the procedure: Total hippocampal RNA was extracted using […] reagent according to the manufacturer's instructions and reverse transcribed. Primers specific for OBRlong were […] NO: 1) and […] NO: 6), for […] NO: 2), and […] NO: 7), for BAX […] NO: 3) and […] NO: 8) for Bcl-2 […] NO: 4) and […] NO: 9) and for actin […] NO: 5) and […] NO: 10). […] Total hippocampal Protein was extracted using […] reagent. Aliquots of the clarified lysates containing […] were denatured in Laemmli sample buffer (6% SDS 30%, glycerol, 0.02% bromophenol blue, 200 mM Tris-HCl (pH 6.8), and 250 mM-mercaptoethanol, at 95° C. for 5 min. The samples were resolved by SDS-PAGE (10% acrylamide), and blotted onto nitrocellulose membrane. Non-specific binding in a Western blot analysis was prevented by immersing the membranes in blocking buffer (5% nonfat dry milk in Tris-buffer saline-Tween 20 (TBS-T)), for 2 h at room temperature. The membranes were then exposed to the indicated antibodies diluted 1:1000 for 1 h at room temperature. AMPK, phospho-AMPK and PARP were obtained from Cell Signaling. Bax, bcl-2 and actin were from Santa Cruz Biotechnology Inc. (Santa Cruz, Calif.). The blots were rinsed in TBS-T and then incubated with horseradish peroxidase-conjugated goat anti-mouse antibodies 1:10,000 for 1 h at room temperature. Antibody-antigen complexes were visualized by detecting enhanced chemiluminescence with X-ray film.
(In general: In western blotting, separated proteins are transferred to a membrane and probed.)

The test system of assay [3] is mice. Briefly: Survival of mice under severe energy restriction (40% DR). It is filed as in vivo. The following applies: for survival time: Kaplan Meir log rank p<0.05. The protocol:
Severe energy restriction leads to deterioration of neural function and eventually death. Since leptin can improve cognitive function following DR to 40% and prevents neural apoptosis, it was investigated whether it may also promote mice survival under these same severe conditions. In the first experiment, mice were fed ad libitum or DR to 40% for 12 days and injected daily with 1 mg/kg leptin or saline during the second week (5 days). 95% of the mice survived with leptin treatment compared to 65% in the control group (p<0.05). In a second experiment, mini-osmotic pumps delivering 0.05 mg/kg/h leptin or saline continuously for 16 days were implanted in mice under 40% DR (12 animals in each group). […] The 50% survival in the treated group increased from 9 to 14 days. (FIG. 5).

Assay [4] has as its system mice. Briefly: Activity index in TAA model of hepatic encephalopathy. To be noted: TAA treated mice, 1 mg/kg Leptin daily for 5 days. It is filed as in vivo. On the procedure:
FIG. 10. […] Mice were treated with TAA, then 1 mg/kg Leptin was administrated daily for 5 days and activity index was evaluated.
Mice were treated with TAA to cause an experimental hepatic encephalopathy-brain damaged caused by liver dysfunction and common in people whose liver function deteriorates. The activity index of the animals was assessed. […] FIG. 11.

Assay [5] relates to mice. Briefly: Eight-arm maze in TAA model of hepatic encephalopathy. It is filed as in vivo. To be noted: TAA treated mice, 1 mg/kg Leptin daily for 5 days. The protocol:
FIG. 11. […] Mice were treated with TAA, then 1 mg/kg Leptin was administered daily for 5 days. Cognitive function was evaluated in the eight arm maze.
(§1) The animals were placed in an eight-arm maze, which is a scaled-down version of that developed for rats (Randt et al, (1971) Science 172, 489-499; Ziv et al (1994) Neuroscience Lett, 170, 136-140). We used water deprivation achieved by limiting water consumption overnight and a reward of 50 μl of water presented at the end of each arm. The mice were tested until they made entries into all eight arms or until they completed 24 entries, whichever came first. […] Maze performance was calculated each day for five consecutive days. Results were presented as area under the curve (AUC) utilizing the formula: (day 2+day 3+day 4+day 5)−4*(day 1).

The subject of assay [6] is mice. Briefly: Eight-arm maze in LPS administered mice. It is filed as in vivo. To be noted: 1 mg/kg leptin daily. The protocol:
as §1
LPS administered mice were daily treated with 1 mg/kg leptin and then subjected to the eight arm maze.

Entries after “also recorded” stand apart in the source; their conditions may differ.

B1: leptin: Murine leptin provided by A. Gertler; adipokine hormone, full leptin is a 146 amino acid sequence (protein, UniProt P41160 22-167, looked up)
Leptin: VPIQKVQDDTKTLIKTIVTRINDISHTQSVSAKQRVTGLDFIPGLHPILSLSKMDQTLAVYQQVLTSLPSQNVLQIANDLENLRDLLHLLAFSKSCSLPQTSGLQKPESLDGVLEASLYSTEVVALSRLQGSLQDILQQLDVSPEC
As to B1, the eight-arm maze performance result in assay [1] (DR to 40%) was “reversed the impaired eight-arm maze performance”; in assay [1] (ad libitum control group), “not affected”. Besides, the Bax levels result in assay [2] was “reducing”. For the same molecule, the PARP cleavage entry in assay [2] was “reduction in the cleaved subunit”. Further, the bcl-2 level entry in assay [2] is on record as “up-regulation”. The 50% survival in assay [3] (40% DR, mini-osmotic pump 0.05 mg/kg/h leptin for 16 days, 9 days with saline) is listed as 14 days. Besides, the survival time entry was “survived significantly longer” in assay [3] (40% DR, mini-osmotic pump 0.05 mg/kg/h leptin for 16 days) and “increases survival” in assay [3] (40% DR, mini-osmotic pump 0.05 mg/kg/h leptin for 16 days, listed as Leptin). In assay [3] (DR to 40% for 12 days, 1 mg/kg leptin daily during second week (5 days), 65% in control group, p<0.05), this molecule came in with a mice survived of 95%. For the same molecule, in assay [4], the activity index entry was “reverse activity in diseased animals to the level of health controls; also recorded: reversed activity to control level”. For the same molecule, the “cognitive function in the eight arm maze” value in assay [5] is listed as “reversed impaired cognitive function”; in assay [6], “reverse cognitive function in diseased animals to the level of health controls; also recorded: improved impaired cognitive function”.

The values are drawn from patent publication US9333240B2, “Compounds for improving nutritional status, cognition and survival” (YISSUM RESEARCH DEVELOPMENT COMPANY OF THE HEBREW …, priority 2005, dated 2016).
